Measured values published in patent US20230331809A1 (Zymeworks, published 2023).
Read-outs that look alike come from different tables or passages of the source.

Experiments:
[1] = target: T1, CD40 (Cluster of Differentiation 40) on cells (UniProt P25942 21-277, limits assumed); assay: cell-based or functional assay
[2] = target: T1, CD40 (Cluster of Differentiation 40) on …; assay: cell-based or functional assay; remark: listed apart in the source
[3] = target: T1, CD40 (Cluster of Differentiation 40) on …; assay: flow cytometry on Raji cells, sample without uPa
[4] = target: T1, CD40 (Cluster of Differentiation 40) on …; assay: flow cytometry on Raji cells (CD40), MFI
[5] = target: T2, CD3 (Cluster of Differentiation 3) on Jurkat cells and on pan T cells (human, UniProt P07766 23-207); assay: cell ELISA on Jurkat cells (CD3), OD450
T2 construct: whole, on cells

[6] = target: T3, PD-L1 (Programmed death-ligand 1) on cells (UniProt Q9NZQ7 19-290); assay: flow cytometry on PD-L1 transfected CHO-S cells, sample without uPa
T3 construct: whole, on cells

[7] = target: T2, CD3 (Cluster of Differentiation 3) on …; assay: cell ELISA on Jurkat cells (CD3), OD450; EC50 relative to v30421
[8] = target: T4, PD-1 (Programmed Cell Death Protein 1) on cells (UniProt Q15116 25-288); assay: flow cytometry on PD-1 transfected CHO-S cells, MFI; * poor fit
T4 construct: whole, on cells

[9] = target: T1, CD40 (Cluster of Differentiation 40) on …; assay: flow cytometry on Raji cells, samples with and without uPa
[10] = target: T1, CD40 (Cluster of Differentiation 40) on …; assay: flow cytometry on Raji cells (CD40), MFI; sample treated with uPa; EC50 relative to v32477 -uPa
[11] = target: T1, CD40 (Cluster of Differentiation 40) on …; assay: flow cytometry on Raji cells (CD40), MFI; sample treated with uPa (variant has no cleavage site)
[12] = target: T2, CD3 (Cluster of Differentiation 3) on …; assay: cell ELISA on Jurkat cells (CD3), OD450; remark: listed apart in the source
[13] = target: T2, CD3 (Cluster of Differentiation 3) on …; assay: cell ELISA on CD3-bearing Jurkat cells, sample without uPa
[14] = target: T2, CD3 (Cluster of Differentiation 3) on …; assay: cell ELISA on Jurkat cells (CD3), OD450; EC50 relative to v30421; remark: listed apart in the source

B1: Variant 32479: HA PD-1:WT PD-L1 masked aCD40 Mab, PD-L1 cleavable (not treated with uPa) (antibody, human IgG1, kappa)
heavy: not shown
light: AFTVTVPKDLYVVEYGSNMTIECKFPVEKQLDLAALIVYWEMEDKNIIQFVHGEEDLKVQHSSYRQRARLLKDQLSLGNAALQITDVKLQDAGVYRCMISYGGADYKRITVKVNAEAAAKEAAAKMSGRSANADIQMTQSPSSVSASVGDRVTITCRASQGIYSWLAWYQQKPGKAPNLLIYTASTLQSGVPSRFSGSGSGTDFTLTISSLQPEDFATYYCQQANIFPLTFGGGTKVEIKRTVAAPSVFIFPPSDEQLKSGTASVVCLLNNFYPREAKVQWKVDNALQSGNSQESVTEQDSKDSTYSLSSTLTLSKADYEKHKVYACEVTHQGLSSPVTKSFNRGEC
notes: also called v32479; untreated v32479
- CD40 reporter gene assay, fold masking of activity [1]: 55 fold
- EC50, CD40 RGA, FcgRIIB CHOK1 (sample v32479 - uPa) [2]: 2.64 µg/mL
- EC50, CD40 RGA, WT CHOK1 (sample v32479 - uPa) [2]: 44.7 µg/mL
- Fold wrt WT (EC50), CD40 RGA, FcgRIIB CHOK1 (sample v32479 - uPa) [2]: 54.3 fold
- Fold wrt WT (EC50), CD40 RGA, WT CHOK1 (sample v32479 - uPa) [2]: 326 fold
- fold reduction of binding vs unmasked v32477 [3]: 14 fold
- EC50 [4]: 14 nM

B2: Variant 30436: WT PD-1:HA PD-L1 masked CD3 × Her2 Fab × scFv Fc, PD-1 cleavable (not treated with uPa) (bispecific antibody, human IgG1, kappa, L234A L235A)
heavy: not shown
light: AFTVTVPKDLYVVEYGSNMTIECKFPVEKQLDLAALQVFWMMEDKNIIQFVHGEEDLKVQHSSYRQRARLLKDQLSLGNAALQITDVKLQDAGVYTCLIAYKGADYKRITVKVNAEAAAKEAAAKDIQMTQSPSSLSASVGDRVTMTCSASSSVSYMNWYQQKPGKAPKRWIYDSSKLASGVPARFSGSGSGTDYTLTISSLQPEDFATYYCQQWSRNPPTFGGGTKLQITRTVAAPSVFIFPPSDEQLKSGTASVVCLLNNFYPREAKVQWKVDNALQSGNSQESVTEQDSKDSTYSLSSTLTLSKADYEKHKVYACEVTHQGLSSPVTKSFNRGEC
chain: not shown
notes: also called masked, heavy-chain-cleavable variant
- EC50 [5]: 180 nM
- binding result [6]: no binding (tested: titrated from 200 nM at a 1:3 dilution)
- Fold wrt WT [7]: 150 fold
- Fold wrt v31931 [8]: > 35 fold

B3: Variant 32477: Unmasked aCD40 mAb (antibody, human IgG1, kappa)
heavy: not shown
light: DIQMTQSPSSVSASVGDRVTITCRASQGIYSWLAWYQQKPGKAPNLLIYTASTLQSGVPSRFSGSGSGTDFTLTISSLQPEDFATYYCQQANIFPLTFGGGTKVEIKRTVAAPSVFIFPPSDEQLKSGTASVVCLLNNFYPREAKVQWKVDNALQSGNSQESVTEQDSKDSTYSLSSTLTLSKADYEKHKVYACEVTHQGLSSPVTKSFNRGEC
notes: also called v32477
- EC50, CD40 RGA, FcgRIIB CHOK1 (sample v32477 + uPa) [2]: 0.03 µg/mL
- EC50, CD40 RGA, FcgRIIB CHOK1 (sample v32477 - uPa) [2]: 0.05 µg/mL
- EC50, CD40 RGA, HEK Blue only (sample v32477 + uPa) [2]: 0.13 µg/mL
- EC50, CD40 RGA, HEK Blue only (sample v32477 - uPa) [2]: 0.15 µg/mL
- EC50, CD40 RGA, WT CHOK1 (sample v32477 + uPa) [2]: 0.1 µg/mL
- EC50, CD40 RGA, WT CHOK1 (sample v32477 - uPa) [2]: 0.14 µg/mL
- Fold wrt WT (EC50), CD40 RGA, FcgRIIB CHOK1 (sample v32477 + uPa) [2]: 0.71 fold
- Fold wrt WT (EC50), CD40 RGA, HEK Blue only (sample v32477 + uPa) [2]: 0.86 fold
- Fold wrt WT (EC50), CD40 RGA, WT CHOK1 (sample v32477 + uPa) [2]: 0.75 fold
- EC50 [4]: 0.98 nM
- EC50 [9]: 1 nM
- Fold wrt WT [10]: 0.96 fold
- EC50 [11]: 0.94 nM

B4: Variant 30444: WT CTLA4:WT CD80 masked CD3 × Her2 Fab × scFv Fc, CTLA4 cleavable (not treated with uPa) (bispecific antibody, human IgG1, kappa, L234A L235A)
heavy: not shown
light: MHVAQPAVVLASSRGIASFVCEYASPGKATEVRVTVLRQADSQVTEVCAATYMMGNELTFLDDSICTGTSSGNQVNLTIQGLRAMDTGLYICKVELMYPPPYYLGIGNGTQIYVIDPEEAAAKEAAAKMSGRSANADIQMTQSPSSLSASVGDRVTMTCSASSSVSYMNWYQQKPGKAPKRWIYDSSKLASGVPARFSGSGSGTDYTLTISSLQPEDFATYYCQQWSRNPPTFGGGTKLQITRTVAAPSVFIFPPSDEQLKSGTASVVCLLNNFYPREAKVQWKVDNALQSGNSQESVTEQDSKDSTYSLSSTLTLSKADYEKHKVYACEVTHQGLSSPVTKSFNRGEC
chain: not shown
notes: also called v30444
- EC50 [12]: 100 nM
- fold decrease of target binding [13]: ~80 fold
- Fold wrt WT [14]: 83 fold
